Experimental data: the supplement of paper PMC7877785
± gives the uncertainty stated by the source.

Test: self-splicing fitness, log relative to wild type (ln ratio); higher = more splicing; Tetrahymena group I intron in knt gene, E. coli kanamycin selection, DiMSum; sequences stand for … in CUCUCU…GGAGGGAAAAGUUAUCAGGCAUGCACCUGGUAGCUAGUCUUUAAACCAAUAGAUUGCAUCGGUUUAAAAGGCAAGACCGUCAAAUUGCGGGAAAGGGGUCAACAGCCGUUCAGUACCAAGUCUCAGGGGAAACUUUGAGAUGGCCUUGCAAAGGGUAUGGUAAUAAGCUGACGGACAUGGUCCUAACCACGCAGCCAAGUCCUAAGUCAACAGAUCUUCUGUUGAUAUGGAUGCAGUUCACAGACUAAAUGUCGGUCGGGGAAGAUGUAUUCUUCUCAUAAGAUAUAGUCGGACCUCUCCUUAAUGGGAGCUAGCGGAUGAAGUGAUGCAACACUGGAGCCGCUGGGAACUAAUUUGUAUGCGAAAGUAUAUUGAUUAGUUUUGGAGUACUCGUGGUCG
Summary of the method: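 Fitness was computed with DiMSum as the error-weighted combination of replicate fold changes, kanamycin versus none, each normalised to wild type. The library randomised all eight intron nucleotides of the P1ex region, with the intron placed in the knt kanamycin-resistance gene on pET-22b(+) in E. coli BL21(DE3). Six replicate transformations were grown overnight at 37°C or 30°C on LB agar with or without 25 μg/mL kanamycin, plus 100 μg/mL carbenicillin, 50 μM IPTG and 0.2% rhamnose. Pooled colonies were amplicon-sequenced on an Illumina HiSeq 2500.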

Sequence	self-splicing fitness (ln) (30 °C)	self-splicing fitness (ln) (37 °C)
GUGAAGCAAUAUUACGGCUC	-0.996 ± 0.091	-0.646 ± 0.099
GUGAAGCAAUAUUACGGGCU	-2.08 ± 0.13	-0.869 ± 0.15
GUGAAGCAAUAUUACGGGUU	-1.67 ± 0.069	-1.4 ± 0.1
GUGAAGCAAUAUUACGUAUG	-2.38 ± 0.085	-1.29 ± 0.088
GUGAAGCAAUAUUACGUGCC	-1.92 ± 0.32	-1.32 ± 0.36
GUGCAGCAAUAUUACGAACA	-1.32 ± 0.22	-1.25 ± 0.2
GUGCAGCAAUAUUACGAAUA	-1.79 ± 0.14	-1.07 ± 0.17
GUGCAGCAAUAUUACGAAUC	-1.28 ± 0.17	-0.491 ± 0.18
GUGCAGCAAUAUUACGAAUU	-1.43 ± 0.091	-0.441 ± 0.12
GUGCAGCAAUAUUACGAGGU	-3.63 ± 0.3	-2.47 ± 0.21
GUGCAGCAAUAUUACGCCCG	-1.69 ± 0.36	-1.51 ± 0.37
GUGCAGCAAUAUUACGCGAG	-2.55 ± 0.13	-1.7 ± 0.12
GUGCAGCAAUAUUACGCUGG	-2.41 ± 0.12	-1.09 ± 0.13
GUGCAGCAAUAUUACGCUGU	-3.35 ± 0.24	-2.63 ± 0.26
GUGCAGCAAUAUUACGGACG	-2.47 ± 0.1	-0.949 ± 0.11
GUGCAGCAAUAUUACGGUAC	-2.67 ± 0.15	-2.07 ± 0.17
GUGCAGCAAUAUUACGUAGG	-1.28 ± 0.11	-1.05 ± 0.16
GUGCAGCAAUAUUACGUCUA	-0.238 ± 0.078	0.283 ± 0.083
GUGCAGCAAUAUUACGUCUU	-1.33 ± 0.083	-0.0365 ± 0.11
GUGCAGCAAUAUUACGUGGA	-3.24 ± 0.28	-2.24 ± 0.19
GUGCAGCAAUAUUACGUGUC	-2.72 ± 0.16	-2.48 ± 0.25
GUGGAGCAAUAUUACGAAGU	-2.01 ± 0.28	-1.66 ± 0.39
GUGGAGCAAUAUUACGAAUU		-3.14 ± 0.47
GUGGAGCAAUAUUACGACAA	-1.83 ± 0.24	-1.38 ± 0.25
GUGGAGCAAUAUUACGACUC	-3.19 ± 0.45	-1.47 ± 0.44

Sequence	self-splicing fitness (ln) (30 °C)	self-splicing fitness (ln) (37 °C)
GUGGAGCAAUAUUACGAGGA	-3.96 ± 0.31	-1.75 ± 0.19
GUGGAGCAAUAUUACGAGGC		-1.03 ± 0.5
GUGGAGCAAUAUUACGAUGC	-1.96 ± 0.15	-1.03 ± 0.16
GUGGAGCAAUAUUACGAUGU	-2.4 ± 0.23	-0.928 ± 0.29
GUGGAGCAAUAUUACGCACG	-2.63 ± 0.29	-2.32 ± 0.25
GUGGAGCAAUAUUACGCGCA	-1.48 ± 0.43	-1.47 ± 0.35
GUGGAGCAAUAUUACGGAAA	-1.87 ± 0.46	
GUGGAGCAAUAUUACGGGAC	-2.17 ± 0.29	
GUGGAGCAAUAUUACGGUGG	-3.76 ± 0.23	-2.5 ± 0.23
GUGGAGCAAUAUUACGGUGU	-2.5 ± 0.17	-1.78 ± 0.22
GUGGAGCAAUAUUACGGUUU	-3.22 ± 0.14	-1.65 ± 0.15
GUGGAGCAAUAUUACGUCGC		-1.71 ± 0.42
GUGGAGCAAUAUUACGUCUU	-2.36 ± 0.24	-2.36 ± 0.36
GUGGAGCAAUAUUACGUUCU	-4.21 ± 0.26	-2.38 ± 0.18
GUGUAGCAAUAUUACGAGAU	-2.83 ± 0.26	-1.23 ± 0.22
GUGUAGCAAUAUUACGAUGC	-1.85 ± 0.16	-0.552 ± 0.18
GUGUAGCAAUAUUACGCGCG	-2.48 ± 0.36	-2.62 ± 0.38
GUGUAGCAAUAUUACGCGUA	-1.82 ± 0.26	-0.729 ± 0.17
GUGUAGCAAUAUUACGCUGA	-1.22 ± 0.18	-1.58 ± 0.17
GUGUAGCAAUAUUACGGCGU	-1.42 ± 0.11	-1.04 ± 0.12
GUGUAGCAAUAUUACGGGAU	-2.93 ± 0.17	-2.18 ± 0.2
GUGUAGCAAUAUUACGGGCC	-1.6 ± 0.23	-1.85 ± 0.48
GUGUAGCAAUAUUACGGGUA	-2.39 ± 0.2	-2.42 ± 0.16
GUGUAGCAAUAUUACGUGAC	-1.35 ± 0.11	-1.29 ± 0.19
GUGUAGCAAUAUUACGUGGC	-1.72 ± 0.18	

Sequence	self-splicing fitness (ln) (30 °C)	self-splicing fitness (ln) (37 °C)
GUUAAGCAAUAUUACGAACA	-2.16 ± 0.29	-1.32 ± 0.21
GUUAAGCAAUAUUACGACGC	-1.05 ± 0.24	-0.36 ± 0.21
GUUAAGCAAUAUUACGAGCA	-1.9 ± 0.12	-0.552 ± 0.11
GUUAAGCAAUAUUACGAGCU	-1.76 ± 0.13	-1.08 ± 0.15
GUUAAGCAAUAUUACGAGGA	-1.5 ± 0.23	-1.15 ± 0.39
GUUAAGCAAUAUUACGAGUC	-3.05 ± 0.12	-1.86 ± 0.15
GUUAAGCAAUAUUACGAUGU	-1.16 ± 0.088	0.226 ± 0.13
GUUAAGCAAUAUUACGAUUA	-1.04 ± 0.13	-0.324 ± 0.11
GUUAAGCAAUAUUACGAUUU	-0.759 ± 0.09	-0.00651 ± 0.14
GUUAAGCAAUAUUACGCAAG	-1.84 ± 0.18	-1.71 ± 0.23
GUUAAGCAAUAUUACGCAUG	-1.11 ± 0.083	-0.624 ± 0.11
GUUAAGCAAUAUUACGCAUU	-2.16 ± 0.18	-1.1 ± 0.16
GUUAAGCAAUAUUACGCCCG	-0.342 ± 0.39	-1.05 ± 0.45
GUUAAGCAAUAUUACGCGCC	-2.44 ± 0.2	-1.56 ± 0.16
GUUAAGCAAUAUUACGCGCU	-2 ± 0.16	-1.63 ± 0.2
GUUAAGCAAUAUUACGCGGG	-2.2 ± 0.12	-1.69 ± 0.16
GUUAAGCAAUAUUACGGAAG	-3.2 ± 0.19	-1.6 ± 0.2
GUUAAGCAAUAUUACGGCGG	-2.8 ± 0.21	-2.29 ± 0.33
GUUAAGCAAUAUUACGUAUC	-1.79 ± 0.1	-1.46 ± 0.14
GUUAAGCAAUAUUACGUAUU	-3.27 ± 0.19	-0.277 ± 0.16
GUUAAGCAAUAUUACGUCGA	-1.79 ± 0.11	-1.02 ± 0.11
GUUAAGCAAUAUUACGUGAU	-1.94 ± 0.067	-1.44 ± 0.082
GUUAAGCAAUAUUACGUGCC	-1.39 ± 0.25	-0.253 ± 0.36
GUUAAGCAAUAUUACGUGCG	-0.344 ± 0.12	-1.15 ± 0.12
GUUAAGCAAUAUUACGUGGA	-2.84 ± 0.15	-2.31 ± 0.15

Sequence	self-splicing fitness (ln) (30 °C)	self-splicing fitness (ln) (37 °C)
GUUAAGCAAUAUUACGUGGG	-2.87 ± 0.13	-2.65 ± 0.17
GUUAAGCAAUAUUACGUGUC	-2.09 ± 0.089	-0.788 ± 0.11
GUUAAGCAAUAUUACGUUCU	-1.03 ± 0.085	-0.445 ± 0.091
GUUAAGCAAUAUUACGUUGG	-2.45 ± 0.14	-1.19 ± 0.15
GUUCAGCAAUAUUACGAACU	-3.89 ± 0.14	-2.56 ± 0.16
GUUCAGCAAUAUUACGACCU	0.353 ± 0.16	0.115 ± 0.17
GUUCAGCAAUAUUACGACUU	-0.0631 ± 0.073	-0.409 ± 0.079
GUUCAGCAAUAUUACGAGCA		-1.75 ± 0.3
GUUCAGCAAUAUUACGAUAC	-0.948 ± 0.078	-0.47 ± 0.13
GUUCAGCAAUAUUACGAUCU	-0.337 ± 0.095	0.0505 ± 0.12
GUUCAGCAAUAUUACGCCCU	-0.106 ± 0.16	0.232 ± 0.19
GUUCAGCAAUAUUACGCUGC		-1.76 ± 0.4
GUUCAGCAAUAUUACGGAAG	-0.667 ± 0.088	0.566 ± 0.12
GUUCAGCAAUAUUACGGCAG	-2.82 ± 0.28	-1.82 ± 0.31
GUUCAGCAAUAUUACGGUAG	-2.08 ± 0.078	-0.531 ± 0.093
GUUCAGCAAUAUUACGGUGG	-2.39 ± 0.18	-1.96 ± 0.19
GUUCAGCAAUAUUACGUAAG	-0.609 ± 0.061	0.5 ± 0.083
GUUCAGCAAUAUUACGUAAU	0.434 ± 0.088	0.484 ± 0.098
GUUCAGCAAUAUUACGUACU	-1.24 ± 0.1	0.162 ± 0.13
GUUCAGCAAUAUUACGUCCU	-0.606 ± 0.14	0.279 ± 0.17
GUUCAGCAAUAUUACGUGAG	-0.139 ± 0.044	-0.408 ± 0.062
GUUCAGCAAUAUUACGUUAA	-1.02 ± 0.11	-0.264 ± 0.12
GUUGAGCAAUAUUACGAAAC	-1.97 ± 0.37	
